The values below come from article PMC9609006.

Substrate in data set [1]: O=[N+]([O-])c1ccc(S)cc1
In words: purified protein. The following applies: thioglycosynthase reaction; thiol acceptor; donor α-D-glucopyranosyl fluoride.

Substrate in data set [2]: OC[C@H]1O[C@H](F)[C@H](O)[C@@H](O)[C@@H]1O
The data set is described as follows: purified protein. The following applies: thioglycosynthase reaction; glycosyl donor; thiol acceptor p-nitrothiophenol.

Residue numbers refer to the chain shown, from its start. Numbers in names are those of the source.

B1: HorGH1 (Halothermothrix orenii H 168; E166A/E354G/M299R) (protein)
chain: MAKIIFPEDFIWGAATSSYQIEGAFNEDGKGESIWDRFSHTPGKIENGDTGDIACDHYHLYREDIELMKEIGIRSYRFSTSWPRILPEGKGRVNQKGLDFYKRLVDNLLKANIRPMITLYHWDLPQALQDKGGWTNRDTAKYFAEYARLMFEEFNGLVDLWVTHNAPWVVAFEGHAFGNHAPGTKDFKTALQVAHHLLLSHGMAVDIFREEDLPGEIGITLNLTPAYPAGDSEKDVKAASLLDDYINAWFLSPVFKGSYPEELHHIYEQNLGAFTTQPGDMDIISRDIDFLGINYYSRRVVRHKPGDNLFNAEVVKMEDRPSTEMGWEIYPQGLYDILVRVNKEYTDKPLYITGNGAAFDDKLTEEGKIHDEKRINYLGDHFKQAYKALKDGVPLRGYYVWSLMDNFEWAYGYSKRFGLIYVDYENGNRRFLKDSALWYREVIEKGQVEAN
What is called Km is the concentration of substrate that gives half-maximal velocity. Turning to B1, the figures for the Km in data set [1] and in data set [2] were 3.82 mM and 2.26 mM, respectively.

B2: HorGH1 (Halothermothrix orenii H 168; E166A/E354G) (protein)
chain: B1 chain with R299M
Consider B2, for which the results for the Michaelis-Menten constant (Km) in data set [1] and in data set [2] were 7.46 mM and 2.12 mM, respectively.
